{"source": "patent US20140248635A1", "about": "“ALPHA-TUBULIN […]” (University of Georgia Research Foundation, Inc., priority 2010, published 2014)", "molecules": {"B1": {"name": "GST-MmMEC-17: recombinant murine MEC-17 expressed in E. coli as a GST fusion (protein)", "chain": "MEFPFDVDALFPERITVLDQHLRPPARRPGTTTPARVDLQQQIMTIVDELGKASAKAQHLPAPITSALRMQSNRHVIYILKDTSARPAGKGAIIGFLKVGYKKLFVLDDREAHNEVEPLCILDFYIHESVQRHGHGRELFQHMLQKERVEPHQLAIDRPSPKLLKFLNKHYNLETTVPQVNNFVIFEGFFAHQHRPPTSSLRATRHSRAAVADPIPAAPARKLPPKRAEGDIKPYSSSDREFLKVAVEPPWPLNRAPRRATPPAHPPPRSSSLGNSPDRGPLRPFVPEQELLRSLRLCPPHPTARLLLATDPGGSPAQRRRTRGTPWGLVAQSCHYSRHGGFNTSFLGTGNQERKQGEQEAEDRSASEDRVLLLDGSGEEPTQTGAPRAQAPPPQSWTVGGDIMNARVIRNLQERRSTRPW", "modifications": "left off: a dimerising Fc or GST", "notes": "recombinant murine MEC-17 expressed in E. coli as a GST fusion"}, "B2": {"name": "GFP-Mec17p: crude GFP-Mec17p-enriched fraction obtained from transgenic Tetrahymena (protein)", "chain": "MFKNQLLSLSLRIQKLRLCRQGNQLKVLQKSINQLLFKTQSIDQILQYLQQKKKTHQSILENQNQHIHSIGLVSQLTNQKINKQKNQKAMEFNFIINKLVQLDQQGLGVYIPRASRSKVSSQQEQQLGQVLNTMGERSAIAQGLKQVITNYDKVQGTDQRVYIVAEGRTCQGFLKVGQKNLFYRDMMGNIKEIKPLCVLDFYVHESCQRQGYGKLLFEYMIQCEQTSPEKLAYDRPSPKLIAFLKKHYNLVKYIAQNNNFVVFDQYFRSDASSQNKQNQNTRSYSQPYSDYSSQIPTNYPQQQQQQSNSKSYPYKQENNIDLMQHSSSRNNKEFLNAGRAILSKEEIYKKDNLSQQNIENTLNNINNSQYSTKSQQQQQYQKDYQLDKYENNWGADKNIKKPPFPGQDRQLDKIQQKIQQTERELDVVNQQIIKQRQNLSQDPLTQNHRAQNVYNTNQFGTSPWAQTGFNYYSTSSSNYGNHYTYYKK", "modifications": "left off: large carriers", "notes": "crude GFP-Mec17p-enriched fraction obtained from transgenic Tetrahymena"}}, "key": {"[1]": {"target": "T1, K40 of α-tubulin (Tetrahymena MEC17-KO axonemes or tubulin) (Tetrahymena thermophila, UniProt P41351)", "T1 construct": "Total tubulin was purified from the MEC17-KO strain of Tetrahymena; endogenous in cells; host or cells: Tetrahymena MEC17-KO strain (axonemes from cilia, or DEAE-purified tubulin)", "assay": "In vitro tubulin acetyltransferase assay: activity of MEC-17 enzyme preparations", "type": "biochemical", "conditions": "for αTAT activity on MEC17-KO axonemes: with acetyl-CoA, western 6-11 B-1", "description": "(§1) To disrupt the MEC-17 gene in Tetrahymena, we used homologous DNA recombination with a fragment carrying the neo4 marker that replaced the coding region. MEC-17 was overexpressed in Tetrahymena using the MTT1 cadmium-dependent promoter. In C. elegans, MEC-12-K40, MEC-12-Q40, and MEC-12-R40 transgenes were introduced into a single site on chromosome II in the EG4322 strain. Animals homozygous for a MEC-12 transgene and homozygous for the mec-12(e1607) allele were obtained by standard crosses. All touch sensation assays in C. elegans were done using blind scoring. To deplete human MEC-17 (C6Orf134) mRNA in Hela cells, we introduced MEC-17-specific siRNAs (ON-TARGETplus pool, Dharmacon) using Oligofectamine (Invitrogen). To knockdown mec17 expression in zebrafish, MOs designed to target the MEC-17 mRNA (Open Biosystems) were injected into early embryos. ATG-MEC17 MO targets the translation initiation site of mec17 mRNA. SP-MEC17 MO targets the exon3/intron3-4 splice junction, and is expected to result in an aberrant splicing isoform of exon2 to exon 4, producing a frameshift mutation and associated protein truncation. As a negative control, we injected MO with a random sequence (oligo-25N, Gene Tools) or a 5 bp mismatch to the ATG-MEC17 MO. Live embryos were scored for phenotypes at 48 hpf. To produce a recombinant MEC-17 protein, the cDNA sequence of the murine MEC-17 (BF135007, Open Biosystems) was subcloned into pGEX-3× plasmid (GE Healthcare), expressed in BL21 E. coli cells as a GST fusion and purified using GST-Bind kit (Novagen). The in vitro acetylation assays were performed in 50 mM Tris-HCl pH 8.0, […], 0.1 mM EDTA, with purified Tetrahymena MEC-17-KO axonemes or tubulin (purified using DEAE chromatography), recombinant GST-MmMEC-17 enzyme and 10 μM acetyl-CoA. The reaction was detected by western blotting using anti-acetyl-K antibodies.\n(§2) To prepare MEC 17-KO axonemes, Tetrahymena cells were grown to the mid-log phase and deciliated by pH shock (Wloga et al., 2008 Eukaryot Cell 7:1362-1372). Cilia were suspended in 1 ml of 1% NP-40 in the axoneme buffer (30 mM HEPES, 20 mM potassium acetate, 5 mM MgSO4, 0.5 mM EDTA, pH 7.6) with Complete protease inhibitors (Roche). After 1-2 min on ice, axonemes were collected by centrifugation (20,000×g, 15 min, 4° C.), suspended in the in vitro acetylation reaction buffer (50 mM Tris HCl, pH 8.0, 10% glycerol, 0.1 mM EDTA, 1 mM DTT) with protease inhibitors and stored at −80° C.\n(§3) Total tubulin was purified from the MEC17-KO strain of Tetrahymena using a protocol modified after Yakovich and colleagues (Yakovich et al., 2006 Exp Parasitol 114:289-296). […]"}, "[2]": {"target": "T2, K40 of α-tubulin (Tetrahymena MEC17-KO axonemes or tubulin) (Tetrahymena thermophila, UniProt P41351, K40R)", "T2 construct": "Total tubulin was purified from the MEC17-KO strain of Tetrahymena; endogenous in cells; host or cells: Tetrahymena MEC17-KO strain (axonemes from cilia, or DEAE-purified tubulin)", "T2 sequence (P41351 whole entry K40R)": "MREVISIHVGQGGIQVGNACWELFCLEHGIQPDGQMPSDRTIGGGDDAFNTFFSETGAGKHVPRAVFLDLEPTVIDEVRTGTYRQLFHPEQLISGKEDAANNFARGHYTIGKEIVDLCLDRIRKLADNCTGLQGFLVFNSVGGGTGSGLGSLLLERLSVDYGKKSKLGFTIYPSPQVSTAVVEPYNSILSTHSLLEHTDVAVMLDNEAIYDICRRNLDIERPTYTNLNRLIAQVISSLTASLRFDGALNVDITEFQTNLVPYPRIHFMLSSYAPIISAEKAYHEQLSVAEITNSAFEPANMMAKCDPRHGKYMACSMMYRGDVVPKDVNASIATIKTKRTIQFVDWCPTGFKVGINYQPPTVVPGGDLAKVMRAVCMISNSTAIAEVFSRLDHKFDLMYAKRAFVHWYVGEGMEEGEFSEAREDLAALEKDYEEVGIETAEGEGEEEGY", "T2 sequence (P41352 whole entry, further chain)": "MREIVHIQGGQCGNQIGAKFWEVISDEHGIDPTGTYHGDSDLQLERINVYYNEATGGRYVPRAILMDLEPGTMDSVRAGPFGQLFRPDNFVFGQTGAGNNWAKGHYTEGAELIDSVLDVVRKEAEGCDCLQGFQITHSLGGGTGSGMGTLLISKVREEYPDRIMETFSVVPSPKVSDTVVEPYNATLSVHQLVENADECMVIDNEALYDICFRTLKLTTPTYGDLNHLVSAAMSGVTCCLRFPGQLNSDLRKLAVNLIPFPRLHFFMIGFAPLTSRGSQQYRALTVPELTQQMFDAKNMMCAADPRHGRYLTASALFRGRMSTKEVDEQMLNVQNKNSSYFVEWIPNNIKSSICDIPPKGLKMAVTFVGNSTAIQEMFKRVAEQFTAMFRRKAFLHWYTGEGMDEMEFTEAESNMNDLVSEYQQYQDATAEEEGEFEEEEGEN", "assay": "In vitro tubulin acetyltransferase assay: activity of MEC-17 enzyme preparations", "type": "biochemical", "conditions": "pan acetyl-K antibodies", "description": "as §1, §2, §3"}}, "data": [{"molecule": "B1", "values": [{"measurement": "K40 acetylation activity on purified tubulin", "setting": "[1]; highly purified tubulin from MEC17-KO cells", "result": "robust K40 acetylation activity"}, {"measurement": "αTAT activity on MEC17-KO axonemes", "setting": "[1]", "result": "robust αTAT activity"}, {"measurement": "acetylation of R40 axonemes (K40R mutant)", "setting": "[2]", "result": "failed to acetylate"}]}, {"molecule": "B2", "values": [{"measurement": "αTAT activity on MEC17-KO axonemes", "setting": "[1]", "result": "had K40 αTAT activity"}]}]}
